# T1: TNFR1 (Homo sapiens, UniProt P19438)
# T1 chain: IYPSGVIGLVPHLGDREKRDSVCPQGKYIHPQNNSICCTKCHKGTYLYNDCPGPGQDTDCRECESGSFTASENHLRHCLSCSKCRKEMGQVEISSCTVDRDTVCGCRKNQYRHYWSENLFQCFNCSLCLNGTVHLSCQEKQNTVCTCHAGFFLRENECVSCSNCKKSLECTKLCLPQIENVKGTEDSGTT
# Biological target: T1, TNFR1
# Test: yeast display SC50
row,apparent Kd (screen),Binder
1,0.79 nM,L7D (designed binder) MTLQELDREEALRRAEAEAFRYALELLAEKFPEQKEYLLDLAEEIESQIRSLSGVDVEDVRKFLDKEWAWVKELLAEHPAELAEVEAARAARLAELRAEVEAKVAA
2,0.539 nM,A102K (designed binder) MTLQELLREEALRRAEAEAFRYALELLAEKFPEQKEYLLDLAEEIESQIRSLSGVDVEDVRKFLDKEWAWVKELLAEHPAELAEVEAARAARLAELRAEVEKKVAA
3,0.869 nM,V55F (designed binder) MTLQELLREEALRRAEAEAFRYALELLAEKFPEQKEYLLDLAEEIESQIRSLSGFDVEDVRKFLDKEWAWVKELLAEHPAELAEVEAARAARLAELRAEVEAKVAA
4,0.539 nM,L27Y (designed binder) MTLQELLREEALRRAEAEAFRYALELYAEKFPEQKEYLLDLAEEIESQIRSLSGVDVEDVRKFLDKEWAWVKELLAEHPAELAEVEAARAARLAELRAEVEAKVAA
5,0.539 nM,E58Y (designed binder) MTLQELLREEALRRAEAEAFRYALELLAEKFPEQKEYLLDLAEEIESQIRSLSGVDVYDVRKFLDKEWAWVKELLAEHPAELAEVEAARAARLAELRAEVEAKVAA
6,0.593 nM,L75V (designed binder) MTLQELLREEALRRAEAEAFRYALELLAEKFPEQKEYLLDLAEEIESQIRSLSGVDVEDVRKFLDKEWAWVKELVAEHPAELAEVEAARAARLAELRAEVEAKVAA
7,0.718 nM,E5Y (designed binder) MTLQYLLREEALRRAEAEAFRYALELLAEKFPEQKEYLLDLAEEIESQIRSLSGVDVEDVRKFLDKEWAWVKELLAEHPAELAEVEAARAARLAELRAEVEAKVAA
8,0.653 nM,E58C (designed binder) MTLQELLREEALRRAEAEAFRYALELLAEKFPEQKEYLLDLAEEIESQIRSLSGVDVCDVRKFLDKEWAWVKELLAEHPAELAEVEAARAARLAELRAEVEAKVAA
9,0.869 nM,E84N (designed binder) MTLQELLREEALRRAEAEAFRYALELLAEKFPEQKEYLLDLAEEIESQIRSLSGVDVEDVRKFLDKEWAWVKELLAEHPAELANVEAARAARLAELRAEVEAKVAA
10,9.41 nM,E44T (designed binder) MTLQELLREEALRRAEAEAFRYALELLAEKFPEQKEYLLDLAETIESQIRSLSGVDVEDVRKFLDKEWAWVKELLAEHPAELAEVEAARAARLAELRAEVEAKVAA
11,0.869 nM,L93R (designed binder) MTLQELLREEALRRAEAEAFRYALELLAEKFPEQKEYLLDLAEEIESQIRSLSGVDVEDVRKFLDKEWAWVKELLAEHPAELAEVEAARAARRAELRAEVEAKVAA
12,0.653 nM,E43F (designed binder) MTLQELLREEALRRAEAEAFRYALELLAEKFPEQKEYLLDLAFEIESQIRSLSGVDVEDVRKFLDKEWAWVKELLAEHPAELAEVEAARAARLAELRAEVEAKVAA
13,2.25 nM,L41E (designed binder) MTLQELLREEALRRAEAEAFRYALELLAEKFPEQKEYLLDEAEEIESQIRSLSGVDVEDVRKFLDKEWAWVKELLAEHPAELAEVEAARAARLAELRAEVEAKVAA
14,0.956 nM,A69F (designed binder) MTLQELLREEALRRAEAEAFRYALELLAEKFPEQKEYLLDLAEEIESQIRSLSGVDVEDVRKFLDKEWFWVKELLAEHPAELAEVEAARAARLAELRAEVEAKVAA
15,24.4 nM,L52E (designed binder) MTLQELLREEALRRAEAEAFRYALELLAEKFPEQKEYLLDLAEEIESQIRSESGVDVEDVRKFLDKEWAWVKELLAEHPAELAEVEAARAARLAELRAEVEAKVAA
16,0.539 nM,R13C (designed binder) MTLQELLREEALCRAEAEAFRYALELLAEKFPEQKEYLLDLAEEIESQIRSLSGVDVEDVRKFLDKEWAWVKELLAEHPAELAEVEAARAARLAELRAEVEAKVAA
17,2.05 nM,A88P (designed binder) MTLQELLREEALRRAEAEAFRYALELLAEKFPEQKEYLLDLAEEIESQIRSLSGVDVEDVRKFLDKEWAWVKELLAEHPAELAEVEAPRAARLAELRAEVEAKVAA
18,0.446 nM,K35Y (designed binder) MTLQELLREEALRRAEAEAFRYALELLAEKFPEQYEYLLDLAEEIESQIRSLSGVDVEDVRKFLDKEWAWVKELLAEHPAELAEVEAARAARLAELRAEVEAKVAA

row,apparent Kd (screen),Binder
1,0.593 nM,A15I (designed binder) MTLQELLREEALRRIEAEAFRYALELLAEKFPEQKEYLLDLAEEIESQIRSLSGVDVEDVRKFLDKEWAWVKELLAEHPAELAEVEAARAARLAELRAEVEAKVAA
2,12.5 nM,L38A (designed binder) MTLQELLREEALRRAEAEAFRYALELLAEKFPEQKEYALDLAEEIESQIRSLSGVDVEDVRKFLDKEWAWVKELLAEHPAELAEVEAARAARLAELRAEVEAKVAA
3,5.31 nM,L64R (designed binder) MTLQELLREEALRRAEAEAFRYALELLAEKFPEQKEYLLDLAEEIESQIRSLSGVDVEDVRKFRDKEWAWVKELLAEHPAELAEVEAARAARLAELRAEVEAKVAA
4,1.54 nM,I45D (designed binder) MTLQELLREEALRRAEAEAFRYALELLAEKFPEQKEYLLDLAEEDESQIRSLSGVDVEDVRKFLDKEWAWVKELLAEHPAELAEVEAARAARLAELRAEVEAKVAA
5,2.73 nM,I49A (designed binder) MTLQELLREEALRRAEAEAFRYALELLAEKFPEQKEYLLDLAEEIESQARSLSGVDVEDVRKFLDKEWAWVKELLAEHPAELAEVEAARAARLAELRAEVEAKVAA
6,0.539 nM,A88K (designed binder) MTLQELLREEALRRAEAEAFRYALELLAEKFPEQKEYLLDLAEEIESQIRSLSGVDVEDVRKFLDKEWAWVKELLAEHPAELAEVEAKRAARLAELRAEVEAKVAA
7,0.49 nM,K103N (designed binder) MTLQELLREEALRRAEAEAFRYALELLAEKFPEQKEYLLDLAEEIESQIRSLSGVDVEDVRKFLDKEWAWVKELLAEHPAELAEVEAARAARLAELRAEVEANVAA
8,10.4 nM,A19K (designed binder) MTLQELLREEALRRAEAEKFRYALELLAEKFPEQKEYLLDLAEEIESQIRSLSGVDVEDVRKFLDKEWAWVKELLAEHPAELAEVEAARAARLAELRAEVEAKVAA
9,0.539 nM,A102N (designed binder) MTLQELLREEALRRAEAEAFRYALELLAEKFPEQKEYLLDLAEEIESQIRSLSGVDVEDVRKFLDKEWAWVKELLAEHPAELAEVEAARAARLAELRAEVENKVAA
10,0.718 nM,E99N (designed binder) MTLQELLREEALRRAEAEAFRYALELLAEKFPEQKEYLLDLAEEIESQIRSLSGVDVEDVRKFLDKEWAWVKELLAEHPAELAEVEAARAARLAELRANVEAKVAA
11,0.539 nM,A102V (designed binder) MTLQELLREEALRRAEAEAFRYALELLAEKFPEQKEYLLDLAEEIESQIRSLSGVDVEDVRKFLDKEWAWVKELLAEHPAELAEVEAARAARLAELRAEVEVKVAA
12,0.49 nM,F20H (designed binder) MTLQELLREEALRRAEAEAHRYALELLAEKFPEQKEYLLDLAEEIESQIRSLSGVDVEDVRKFLDKEWAWVKELLAEHPAELAEVEAARAARLAELRAEVEAKVAA
13,0.539 nM,E81T (designed binder) MTLQELLREEALRRAEAEAFRYALELLAEKFPEQKEYLLDLAEEIESQIRSLSGVDVEDVRKFLDKEWAWVKELLAEHPATLAEVEAARAARLAELRAEVEAKVAA
14,2.48 nM,I49E (designed binder) MTLQELLREEALRRAEAEAFRYALELLAEKFPEQKEYLLDLAEEIESQERSLSGVDVEDVRKFLDKEWAWVKELLAEHPAELAEVEAARAARLAELRAEVEAKVAA
15,7.07 nM,L7F (designed binder) MTLQELFREEALRRAEAEAFRYALELLAEKFPEQKEYLLDLAEEIESQIRSLSGVDVEDVRKFLDKEWAWVKELLAEHPAELAEVEAARAARLAELRAEVEAKVAA
16,0.539 nM,E81K (designed binder) MTLQELLREEALRRAEAEAFRYALELLAEKFPEQKEYLLDLAEEIESQIRSLSGVDVEDVRKFLDKEWAWVKELLAEHPAKLAEVEAARAARLAELRAEVEAKVAA
17,2.73 nM,L74I (designed binder) MTLQELLREEALRRAEAEAFRYALELLAEKFPEQKEYLLDLAEEIESQIRSLSGVDVEDVRKFLDKEWAWVKEILAEHPAELAEVEAARAARLAELRAEVEAKVAA

# — publication PMC12416549 (2024)
